Measured values from paper PMC3762189, “Mechanism of synergistic activation of Arp2/3 complex by cortactin and N-WASP” (eLife, 2013).

Target: G-actin (rabbit muscle actin monomers) (rabbit, UniProt P68135 1-377)
Assay: fluorescence polarisation; competition: anisotropy of 50 nM Rhodamine-VCA with 150 nM G-actin and increasing VCA or VCA mutants; 10 mM Hepes pH 7.0, 50 mM KCl, 1 mM MgCl2, 1 mM EGTA, 1 mM DTT, 0.2 mM ATP, 350 nM Latrunculin B; KD is the mean of at least three fits
Settings: both partners purified

Kd: 560 ± 30 nM
B1: N-WASP-VCA (domain or fragment)
chain: PVSCSGRDALLDQIRQGIQLKSVTDAPESTPPAPAPTSGIVGALMEVMQKRSKAIHSSDEDEDEDDDEDFEDDDEWED
notes: N-WASP, VCA region (verprolin homology, central, acidic); The text implies a GST tag with a TEV site on the VCA constructs; also called monomeric VCA; WT; source: purified as described previously (Hetrick et al., 2013)
